The data set addresses T1, FinR (Pseudomonas aeruginosa PAO1) (UniProt Q9HYK6).
T1 sequence: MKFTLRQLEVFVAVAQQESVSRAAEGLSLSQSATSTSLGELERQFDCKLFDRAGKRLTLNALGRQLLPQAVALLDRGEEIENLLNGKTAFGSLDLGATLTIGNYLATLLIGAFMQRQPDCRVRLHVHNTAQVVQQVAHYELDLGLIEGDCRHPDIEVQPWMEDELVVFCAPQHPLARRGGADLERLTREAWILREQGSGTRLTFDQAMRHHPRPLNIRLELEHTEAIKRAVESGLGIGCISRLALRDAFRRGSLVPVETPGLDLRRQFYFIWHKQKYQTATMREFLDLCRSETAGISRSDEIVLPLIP
The data set can be described thus: EMSA. The note with it: EMSA: 20 mM Tris-HCl pH 8.0, 50 mM KCl, 4 mM MgCl2, 0.5 mM EDTA, 0.02 mg/ml BSA, 5 mM DTT, 10% glycerol, 200 ng poly(dI-dC), 3 fmol probe in 25 ul, 25 C …. A general note: In EMSA bound probe runs differently from free probe, usually more slowly.

As for “AGACGCTCTCCTGCTGGGCCACGGCGACGAACACCTCGAGCTGGCGGAGGGTGAATTTCATCCAGGCTTCCTCGTCTAGAGCGAAAGGCCCCGCGACATTTTGCCGTTCCGTCGGCGGGGTTGGCTCGGTTATCCTTGCGCCCCGTCCGCGGGAGCGATGGGAGCCCTCGGCGGCCGGCGGCCGACCGATATCGTGTTATCCC (double strand) [EBI62-EBI69 fragment (without FinR site)]”, the binding entry is on record as “no binding”.

For the sequence “CGATATCGTGTTATCCCATATCCATATTCTGGATAAGCATTATCCAGACAATTCATTTTGCGGATATTTTGGCAACCGATAAAATGCCGCGCAACTGCGTCACGTCTGCTGCTGTTGGTGTGCGCCCGCGTTTTCCTAGGAGTCTTTGATGAGCAATCTGTACACCGAGCGCGTTCTCAGCGTGCACCACTGGAACGACACCCTGTTCAGCT (double strand) [EBI61-EBI70 fragment (with FinR site)]”, the binding result is on record as “binds”.

These data come from paper PMC5302815.
